According to patent US20050090643A1:

B1: CVN Gln50 deletion mutant (ΔQ50-CVN), obligate domain-swapped dimer of cyanovirin (protein)
chain: LGKFSQTCYNSAIQGSVLTSTCERTNGGYNTSSIDLNSVIENVDGSLKWPSNFIETCRNTQLAGSSELAAECKTRAQQFVSTKINLDDHIANIDGTLKYE
B2: dimeric wild-type CVN (protein)
chain: LGKFSQTCYNSAIQGSVLTSTCERTNGGYNTSSIDLNSVIENVDGSLKWQPSNFIETCRNTQLAGSSELAAECKTRAQQFVSTKINLDDHIANIDGTLKYE
B3: monomeric wild-type CVN (protein)
chain: LGKFSQTCYNSAIQGSVLTSTCERTNGGYNTSSIDLNSVIENVDGSLKWQPSNFIETCRNTQLAGSSELAAECKTRAQQFVSTKINLDDHIANIDGTLKYE

Target: viral envelope glycoprotein gp120 of human immunodeficiency virus (HIV-1) (HIV-1)
Assay: cell-based or functional assay

Binder | IC50 in quantitative vaccinia virus-based HIV-1 fusion assay | average KD from non-linear least squares best fitting of HIV-1 fusion assay titration data to a two-independent site model
B1 | 9 nM | 22 nM
B2 | 9 nM | 21 nM
B3 | 32 nM | 67 nM
